The values below come from patent US20220389077A1, “ALLOGENEIC CELL COMPOSITIONS AND METHODS OF USE” (Poseida Therapeutics, Inc., priority 2018, published 2022).

What all share (format): cell-based, human
Assay [1] concerns CAR molecule on the surface of T cells. As to the kind of experiment: Staining for surface expression of CAR after secondary expansion. The conditions noted are these: DKO cells. From the text:
After secondary expansion, cells (Mock (WT T cells), WT CAR-T cells, DKO CAR-T cells, DKO CAR-T cells+CD2z CSR, and DKO CAR-T cells+CD28z CSR) were stained for the surface-expression of CAR and compared to control WT CAR-T cells and Mock T cells.

A further assay relates to purified DKO CAR-T cells. As to the kind of experiment: Re-stimulation and secondary expansion of purified DKO CAR-T cells, with or without IL7 and IL15. The following applies: 14 day culture; re-stimulation. The procedure: After initial genetic modification and a first round of stimulation and expansion, cells from each group (Mock (WT CAR-T cells), DKO CAR-T cells, DKO CAR-T cells+CD2z CSR, and DKO CAR-T cells+CD28z CSR) were purified for TCR^−MHCI^− cells using magnetic beads. The purified cells were then re-stimulated using anti-CD2, anti-CD3, and anti-CD28 agonist mAbs. At the end of the 14 day culture period, TCR and MHCI expression (A) as well as magnitude of cell population expansion (B) was determined. After this secondary expansion, all purified DKO cells, including those expressing either CD2z or CD28z CSR, were still extremely pure for DKO cells (>98.8% DKO).
FIG. 11 is a graph showing that cytokine supplementation can further expand purified DKO CAR-T cells expressing CSR upon re-stimulation. After initial genetic modification and a first round of stimulation and expansion, cells expressing CSRs were purified for DKO cells using magnetic beads. The purified cells were then re-stimulated using anti-CD2, anti-CD3, and anti-CD28 agonist mAbs in the presence exogenous purified recombinant IL7 and IL15. At the end of the 14 day culture period, magnitude of cell population expansion was determined. After a secondary expansion, all purified DKO cells, including those expressing either CD2z or CD28z CSR, were still extremely pure for TCR^−MHCI^− cells (>98.8% double knockout (data not shown)). […]

The test system of a further assay is Lag3, PD1, and Tim3. As to the kind of experiment: Flow cytometry for exhaustion molecules. The following applies: compared to mock T cells. The source says: Mock (WT T cells), WT CAR-T cells, DKO CAR-T cells, DKO CAR-T cells+CD2z, and DKO CAR-T cells+CD28z were examined by flow cytometry for the expression of important exhaustion molecules Lag3, PD1, and Tim3. […] This phenotype may have a negative impact on the in vivo functionality of these CAR T cells since they appear to be more exhausted.
(A flow cytometer gives signals particle by particle.)

The subject of a further assay is DKO CAR-T cells. The assay is described as follows: Expansion of TCRb/b2M double-knockout (DKO) CAR-T cells after stimulation with agonist mAbs anti-CD2, anti-CD3 and anti-CD28. The conditions noted are these: 16 day culture; CSR delivered in piggyBac transposon. From the text: FIGS. 9A-9B are a series of plots showing that piggyBac® delivery of CSR enhances the expansion of TCRb/b2M double-knockout CAR-T cells. Pan T cells isolated from normal donor blood were genetically modified using the piggyBac® DNA modification system in combination with the Cas-CLOVER™ gene-editing system. Cells were electroporated in a single reaction with a transposon encoding a CAR, selection gene and a CSR (either CD28z or CD2z), an mRNA encoding the super piggyBac™ transposase enzyme, an mRNA encoding Cas-CLOVER™, and multiple guide RNA (gRNA) targeting TCRb and b2M in order to knockout the TCR and MHCI (double-knockout; DKO). The cells were subsequently stimulated with agonist mAbs anti-CD2, anti-CD3 and anti-CD28, and were later selected for genetic modification over the course of a 16 day culture period. At the end of the initial culture period all T cells expressed the CAR, indicating successful selection for genetically-modified cells (data not shown).

The test system of the next assay is TCRb and b2M. The assay is described as follows: Gene editing (knockout of TCR and MHCI) of Allo CAR-T cells with CSR. The following applies: up to 14-day culture; CSR stable or transient. The source says: Pan T cells isolated from healthy donor blood were genetically modified using the piggyBac® DNA modification system in combination with the Cas-CLOVER™ gene-editing system (CC) to produce allogeneic (Allo) CAR-T cells. […] Following EP, all cells were subsequently stimulated with a cocktail of agonist mAbs anti-CD2, anti-CD3 and anti-CD28, and were later selected for genetic modification over the course of up to a 14-day culture period using the selection gene. At the end of the initial culture period, all T cells expressed the CAR, indicating successful selection for genetically-modified cells (data not shown). All samples were performed in duplicate, and data is shown in bar graph where error bars represent standard deviation.

On to “CD28z CSR: chimeric stimulatory receptor: CD28 signal peptide, extracellular, transmembrane and cytoplasmic domains with CD3z intracellular domain (SEQ ID NO: 17060)”, for which the “surface expression of CAR” value in assay [1] was “does not have a significant impact”. Besides, the “magnitude of cell population expansion compared to those not expressing either CSR” value with purified DKO CAR-T cells was “enhanced expansion”. Besides, the “expression of exhaustion molecules Lag3, PD1, and Tim3” value with Lag3, PD1, and Tim3 was “significant upregulation of exhaustion markers Lag3, PD1, and Tim3”. Besides, the “expansion of the cells in comparison to DKO CAR-T cells alone” value in the assay with DKO CAR-T cells is listed as “at least a two fold expansion”.

B1: CD2z CSR: chimeric stimulatory receptor: CD2 signal peptide, extracellular, transmembrane and cytoplasmic domains with CD3z intracellular domain (SEQ ID NO: 17062) (protein)
chain: MSFPCKFVASFLLIFNVSSKGAVSKEITNALETWGALGQDINLDIPSFQMSDDIDDIKWEKTSDKKKIAQFRKEKETFKEKDTYKLFKNGTLKIKHLKTDDQDIYKVSIYDTKGKNVLEKIFDLKIQERVSKPKISWTCINTTLTCEVMNGTDPELNLYQDGKHLKLSQRVITHKWTTSLSAKFKCTAGNKVSKESSVEPVSCPEKGLDIYLIIGICGGGSLLMVFVALLVFYITKRKKQRSRRNDEELETRAHRVATEERGRKPHQIPASTPQNPATSQHPPPPPGHRSQAPSHRPPPPGHRVQHQPQKRPPAPSGTQVHQQKGPPLPRPRVQPKPPHGAAENSLSPSSNRVKFSRSADAPAYKQGQNQLYNELNLGRREEYDVLDKRRGRDPEMGGKPRRKNPQEGLYNELQKDKMAEAYSEIGMKGERRRGKGHDGLYQGLSTATKDTYDALHMQALPPR
In the case of B1, the “surface expression of CAR” value in assay [1] is “does not have a significant impact”. For the same molecule, the “magnitude of cell population expansion compared to those not expressing either CSR” value in the assay on purified DKO CAR-T cells is listed as “enhanced expansion”. In addition, the “degree of gene editing compared to Allo CAR-T cells produced without a CSR” value in the assay on TCRb and b2M is “a similar or greater degree of gene editing”. The “expression of exhaustion molecules Lag3, PD1, and Tim3” value in the assay with Lag3, PD1, and Tim3 is reported as “little to no expression of exhaustion molecules”. The “expansion of the cells in comparison to DKO CAR-T cells alone” value in the assay on DKO CAR-T cells was “at least a two fold expansion”.
